According to the nanobody polyreactivity screen of Harvey et al. (2022):

Assay: yeast display, Sf9 membrane polyspecificity reagent, FACS + sequencing; frameworks hold sequencing errors
In short: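 In a synthetic yeast display library (Saccharomyces cerevisiae BJ5465), nanobody expression was induced with galactose for 36–48 hours. FACS gates were set low and high (top ~1%) using anti-HA fluorescence for expression and streptavidin fluorescence for binding of the Sf9 membrane reagent. Each polyreactivity label is drawn from the gate of origin.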

Row | Sequence | polyreactivity (PSR sort gate)
1 | QVQLVESGGGLVQAGGSLRLSCAASGSIFTYTMGGYRQAPGKERELVATISRTGSTNYADSVKGRFTISRDNAKNTVYLQMNSLKPEDTAVYYCSKGAYITGAWPFYELITPYAYWGQGTQVTVSS | high polyreactivity
2 | QVQLVESGGGLVQAGGSLRLSCAASGSTFIVNALGGYRQAPGHEREFVAAIRWSGGSTYYADSVKGRFTISRDNAKNTVYFQMNSLKPDDTAVYYCNARSYQSARFRGGYWGQGTQVTVSS | high polyreactivity
3 | QVQLQESGGGLLQAGGSLRLSCAASGTIFRFRYMGWHRQAPGKERELVAGINGGTTTYYADSVIGRFTISRDNAKNTVYLQMNSLKPDDTAVYNCAAGASRLTYYDYWGQGTQVTVSS | low polyreactivity
4 | QVQLVESGGGLVQAGGSLRLSCAASGSTFAGNEMGWYRQAPGKERELVAAITFSGGRTDYADSVKGRFTISRDNAKNTVYFQINCLKPEDTAVYDCAAPADDTVHYQNYYWGQGTQVSVSS | low polyreactivity
5 | QVQLVESGGGLVQAGGSLRLSCAASGRTFYRNARGWYRQAPGKERELVAVISSSGVRTYYADSVKGRFTISRDNAKNTVYLQRNSQKPEDTAVYYCAADSNSYYRGFDYWGQGTQVTVSS | high polyreactivity
6 | QVQLVESGGGLVQAGGSLRLSCAASGRTLPYYAMGWYRQAPGKERELVATISSRGGSTYYADSVKGRFTISRDNAKNTVYLQMNSLKPEDTAVYYCAARGNTPRTRRYGYWGQGTQVTVSS | high polyreactivity
7 | QVQLAESGGGLVQAGGSLRLSCSASGSTFVAYAMGWYRQAPGKERELVAAITRSGGSTYYADSVKGRFTISRDNAKNTVYLQMNSLKPEDTAVFYCAARHYRSRDGYWGQGTQVTVSS | high polyreactivity
8 | QVQLHESGCVLVQAGGSLRLRCAASRNISGSSDLGWYHQAPGKEREFVASITSGGTTYYADSVKVRFTISRDNAKNTVYLQMNSLKPEDTAVYYCAVGDPADAEFGYWGQGTQVTVSS | low polyreactivity
9 | QVQLVESGGGLVQAGGSLRLSCAASGSIFYRNAMGWYRQAPGKERELVAAISRGGSTNYADSVKGRFTIERDNAKNTVYLQMNSLKPEDTAVYYCNALYHGDYDYWGQGTQVTVSS | high polyreactivity
10 | QVQLVESGGGLVQAGGSLRLSCAASGSTFTRYAMGWYRQAPGKERELVAAISLSGGDTYYADSVKGRFTISRDNAKNTVYLQMNSLKPEDTAVYYCAARWGYRGYSYEYWGQGTQVTVSS | high polyreactivity
11 | QVQLVESGGGLVQAGGSLRLSCAASGRTFVYYAMGWYRQAPGNERELVASISSGAGSPNYADSVKGRYTISRDNAKNTGYVQMNSLKPEDTAVYYCAVDTPRYRYYRTSYDYWRQGTQVTVSS | low polyreactivity
12 | QVQLVESGGGLVQAGGSLRLSCAASGLIFGGYTMGWYRQAPGKERELVAAIDSGGSTKYADSVKGRFTISRDNAKNTVYLQMNSLKPEDTAVYYCAARDYYAWRYRYHHEVSEFDYWGQGTHVTVSS | low polyreactivity
13 | QVQLVESGGGLVQAGGSLRLSCAASGFTVGYNAMGWYRQAPGKERELVAAIDKRGDSTYADSVKGRFTISRDNAKNTVYLQMNSLKPEDTAVYYCAADSDSKYNYGFLWDTYESWGQGTQVTVSS | low polyreactivity
14 | QVQLVESGGGLVQAGGSLRLSCAASGSTFSYFAMGWYRQAPGKERELVAAISWNGGSTYYADSVKGRFTISRDNAKNTVYLQMNSLKPEDTAVYYCAAHPAYRDSWGEYDYWGQGTQVTVSS | low polyreactivity
15 | QVQLVESGGGLVQAGGSLRLSCAASGRIFVYYAMGWYRQAPGKERELVASISYSGASTYYADSVKGRFTISRDNAKNTVYLQMNSLKPEDTAVYYCATDVRGVDGEDDYWGQGTQVTVSS | low polyreactivity
16 | QVHLVESGGGLVQAGGSLRLSCAASGFIFIRYAMGWYRQAPGKERELVAAINGGGSSTYYADSVKGRFTISRDNAKYTVYLQMNSLKPEDTAVDYCDADTDSWWYYLYYGDGFDYWGQGTQVTVSS | high polyreactivity
17 | QVQLVESGGGLVQAGGSLPLSCAASGSIFDDYAMGWYRQAPGKEWELVAAITSGGSTYYADSVKGRFTISRDNAKYTVYLQMNSLKPEDTAVYYCAAPENKYDEYDYWGQGTQVTVSS | low polyreactivity
18 | QVQLVESGGGLVQAGGSLRLSCAASGSTFWFYTMGWYRQAPGKERELVATITSGGSTNYADSVKGRFTISRDNAKNTVYLQMNSLKPEDTAVYYCAASSVLTNHDYWGQGTQVTVSS | low polyreactivity
19 | QVQLVESGGGLVQAGGSLRLSCAASGRIFLVYGMGWYREAPGKERELVASITYRGGSTYYADSVKGRFTISRDNAKNTVYLQMNSLKPEDTAVYYCADDGAFYASTEMDYWGQGTQVNVSS | low polyreactivity
20 | QVQLVESGGGLVQAGGRLRLSCAASAFIFVTYAMGCYRQAPGKERELVAAITNSGGTTYYADSVKGRFTISRDNAKNTVYLQMNSLKPEDTAVYYCNTEDFFNVPEMDSWGQGTQVTVSS | low polyreactivity
21 | QVQLVESGGGLVQAGGSLPLSCAASGSISGLNARGWSRQAPGTEREMVAAISRSGTRRYYADSVKGRFTISRDNEKNTVYLQMNSLKPEDSAVYYCAVQYAVAVGRYNYWGQGTQVTVSS | high polyreactivity
22 | QVQLVESGGGLVQAGGSLRRTCAASGSIFVGYAMGWYRQEPGKERELVASITNGDSTNYADSVKGRFTISRDNAKNTVSYQMNSLKPEDTAVYYCAADYYSVHPSGWYGYEYWGQGTQVTVSS | low polyreactivity

Row | Sequence | polyreactivity (PSR sort gate)
23 | QVQLVESGGGLVQAGGSLRLSCAASVRIFAKYAMGWYRQAPGKERELVAAITSGGRTYYADSVKGRFTISRDNAKNTVYLPMNSLKPEDTAVYYCNAVPKSRDWQSYGSWGQGTQVTVSS | high polyreactivity
24 | QVQLVESGGGLVQAGGSLRLTCAASGRTFNIYAMGWYRQAPGKERELVAAITSGGSTNYADSVKGRFTISRDNAKNTVYLQMNSLKPEDTAVYYCNARYFRGYDYWGQGTQVTVSS | high polyreactivity
25 | QVQVVESGGGLVQAGGSLRLSCAASGFTFSFNAMGSYRQAPWKERELVAAIDRGVSTYYADSVKGRFTISRDNAKNTVYLQMKSLKPEDTAVSYCAVEYWEPYDMDYWGQGTQVTVSS | high polyreactivity
26 | QVQLVESGGRLVQAGGSLRLSCAASGIFYTYDMGRYRQAPGKERELVATINSGGSTNYADSVKGRFTISRDNAKNTVYLQMNSLKPEDTAVYYCAAAEDVYSERPRYDYWGQGTQVTVSS | low polyreactivity
27 | QVQIVESGGGLVQAGGSLSLSCAASGFIFSVNDMGWYRQAPGKERELVAAISRDSGSKYYADSVKGRFTISRDNAQNSVYLEMISLKPEDTAVYDCNGEGQWVWDPYGVYDDDSYNYWGQGTQVTVSS | low polyreactivity
28 | QVQLVESGGGLVQAGGSLRLSCAASGRTFHGYAMGWYRQAPGKERELVAAINASGGRTYYADSVKGRFTISRDNAKNTVYLQMNRLKPEDTAVYYCAVYSASFRYGLAYDYWGQGTQVTVSS | high polyreactivity
29 | QVQIVESGGGLVQAGGSLRLICAASGYTFTIYAMGWYRQAPGKERELVAAITTIGGRTYYADSVKGRFTISRDNAKNTVYLQMNSLKPEATAVYYCAARARVEGGYRGKFGYWGQGTQLTVSS | high polyreactivity
30 | QVQLVESVGGLVQAGGSLRLSCAPSGRIFGKYAMGWYRQAPGKERELVADITWGGGSTNYADSVKGRFTISRDNAKNTVYLQMNSLNPDDTAVYYCATGFYYYLTKTIPYEYEYWGQGTQVTVSS | low polyreactivity
31 | QVQLVESGGGLVQAGGSLRLSCAASGRIFYYNAMGWYRQAPGKERELVAAITSGGSTNYADSVKGRFTISRDNAKNTVYLQMNSLNPEDTAVYYCAADYYYYVAGVHYDYWGQGTLVTVSS | low polyreactivity
32 | QVQLVESGGGLVQAGGSLRLSCAASGSTFEYNAMGWYRQAPGKERELVASSTNYADSVKGRFTISRDNAKNTVYLQMNSLKPEDTAVYYFAREQGVNRNHDYWGQGTQVTVSS | low polyreactivity
33 | QVQLVESGGGLVQAGGSLRLSCAASGSIFWPYAMGWYRQAPGKERELVAGISRSGGITYYADSVKGRFTISRDNAKNTVYLQMNSLKPEDTAVYYCARYQEWRQEYDYWGQGTQVTVSS | high polyreactivity
34 | QVQLGESGGGLVQAGGSLRLSCAASGSIFKVNVMGWYRQEPGKERELVAAISRSGGNTYYADYVKGRFTISRDNAKNTVYLKMNSLKPEDTAVYYCAKDRRYYKAYDYWGQGTQVTVSS | low polyreactivity
35 | QVQLVDSGGGLVQAGGSLRLSCAASGSTIPNYAMGWYRQAPGKERELVADIDSSGGSTYYADSVKGRFTISRDNAKNTVYLQMNSLKPEDTAVYYCAAGYFWYDVLNSRVLVWNNYWGQGTQVTVSS | high polyreactivity
36 | QVQLVESGGGLVQAGGSLRLSCAASGYTLGVNAMGWSRQAPGKERELVAAINYIDTRTYYADSVKGRFTISRDNAKNTVYLKLNSLKPEDTAVYYCAARPYVPWVKRYYYWGQGTQVTVSS | low polyreactivity
37 | QVQHVESGGGLVQAGGSLRLSCAASGLTFYDYAMGWYRQAPGKERELVADIDFNGGSTSYADSVKGRFTISRDNAKNTVYLQMNSLKPEDTAVYYCAARIHGSWSFDYWGQGTQVTVSS | low polyreactivity
38 | QVQLVESGGGLVQAGGSLRLSCAASGSTLGVNAMGWYRQAPGKEREFVSSITGRVGNTYYADSVKGRFTISRDNAKNTVYLQMNSLKPEDTAVYYCAARVKYTRYQSILDYYYWGQGTQVTVSS | high polyreactivity
39 | QVQLVESGGGLVQAGGSLRLSCAASGSTFAGYAMGWYIQAPGKERELVASIRSGGSTNYADSVKGRFSISRDNAKNTVYLQMNSLKPEDTAVYYCAARPDQKRYDYWGQGTQVTVSS | low polyreactivity
40 | QVQLVESGGGLVQAGGSLRLICAASGNIFSFNDMGWSRPAPGKERELVASITSGGRTNYADSVMGRFTISRDNAKNTVYLQMNSLKPEDTAVYYCAADYSVPTSQAYDYWGQGTQVTVSS | low polyreactivity
41 | QVQHVESRGGLVQAGGSLRLICAASGFTFSSYAMGWYRQAPGKERELVASISWRGGIPYYADSVKGRFTISRDNAKNTVDLQMISLKPEDTAVYYCAAVPSYHSTSPFYYWGQGTQVTVSS | high polyreactivity
42 | QVQLEESGGGLVQAGGNLRLSSAASGSIFSFNAMGCYRQAPGKERELVAAISWRGASTYYADSVKGRFTISRDNAKNTVYLQMNSLKPEDTAVYYCAAESTFILQYSYIYYDGHYDYCGQGTQVTVSS | low polyreactivity
43 | QVQLVESGGGLVQARGSRRLSCAASGFIFRFNAMGWYRQAPGKERELVASITGSGGITYADSVKRRFTMSRDNAKNTVFLPMHSLKPDDTAVYYSAARGDGYQSGWVADWAPFYYWRQGTQVTVSS | high polyreactivity
